Experimental findings from publication PMC3814363, “Tracking in atomic detail the functional specializations in viral RecA helicases that occur during evolution” (Nucleic Acids Research, 2013) are described below.

Series [1] deals with ɸ13 P4 (full-length packaging NTPase P4 of bacteriophage ɸ13) (bacteriophage ɸ13). Description: crystal structure; ɸ13 P4 crystals grown at 20°C from 12 mg/ml protein; 100 mM Tris–HCl pH 7.0, 900 mM trisodium citrate, 200 mM NaCl; apo form; hexamer.
For another series, the target named is T1, ɸ12 P4 (Pseudomonas phage phi12, UniProt Q94M05).
T1 construct: gene 4; plasmid pPG27 (template for mutants), E. coli BL21(DE3) or B834(DE3); hexamer
The series is described as follows: X-ray crystal structure, […] Å. The note with it: 5 mM UTP, pH 4.8; nucleotide site; competitive with ATP, not hydrolysed. Format: binding.

For series [2], the target named is ɸ8 P4Δ281 (C-terminally truncated ɸ8 P4, missing residues 281–321) (bacteriophage ɸ8). The series is described as follows: crystal structure; ɸ8 P4Δ281 crystals from 5 mg/ml protein; 100 mM Tris pH 8.0, 18% PEG 1000; hexamer.
The target in series [3] is ɸ8 P4 (full-length packaging NTPase P4 of bacteriophage ɸ8) (bacteriophage ɸ8). The series is described as follows: crystal structure; ɸ8 P4 crystals grown at 24°C; 100 mM sodium acetate pH 4.6, […] ammonium sulphate, DTT; protein 3 mg/ml; apo form; hexamer.
Series [4] deals with the molecule itself. The series is described as follows: not stated; quaternary structure of purified ɸ12 P4 mutants as listed in Table 1; method not given.
Series [5] concerns the molecule itself. The series is described as follows: crystal structure; wild-type ɸ12 P4 crystals; 10% PEG 1500, 100 mM sodium acetate pH 4.8, 5 mM UTP; hexamer.
Series [6] concerns the molecule itself. Description: crystal structure; ɸ6 P4Δ310 crystals grown at 24°C from 3.5 mg/ml protein in 20 mM HEPES pH 8.0, 5 mM MgCl2, 2 mM CaCl2, 5 mM ADP, 100 mM NaCl; reservoir 6% PEG 4000, 90 mM sodium acetate pH 4.5; ADP bound; hexamer.

For the molecule “ɸ13 P4 (full-length packaging NTPase P4 of bacteriophage ɸ13) (enzyme)”, the stoichiometry N (usually the number of molecules, sites or subunits per partner or assembly) in series [1] is 6.

With `O=c1ccn([C@@H]2O[C@H](COP(=O)(O)OP(=O)(O)OP(=O)(O)O)[C@@H](O)[C@H]2O)c(=O)[nH]1` [UTP], the “X-ray crystal structure, 1.9 Å” value on ɸ12 P4 is listed as “pyrimidine triphosphates can bind the hexamer without being hydrolysed”.

Take “ɸ8 P4Δ281 (C-terminally truncated ɸ8 P4, missing residues 281–321) (domain or fragment)”: in series [2], the stoichiometry N worked out at 6.

Regarding “ɸ8 P4 (full-length packaging NTPase P4 of bacteriophage ɸ8) (enzyme)”, the stoichiometry N in series [3] amounted to 6.

B1: ɸ12 P4 Y288A (enzyme, bacteriophage ɸ12)
chain: MIHLYDAKSFAKLRAAQYAAFHTDAPGSWFDHTSGVLESVEDGTPVLAIGVESGDAIVFDKNAQRIVAYKEKSVKAEDGSVSVVQVENGFMKQGHRGWLVDLTGELVGCSPVVAEFGGHRYASGMVIVTGKGNSGKTPLVHALGEALGGKDKYATVRFGEPLSGYNTDFNVFVDDIARAMLQHRVIVIDSLKNVIGAAGGNTTSGGISRGAFDLLSDIGAMAASRGCVVIASLNPTSNDDKIVELVKEASRSNSTSLVISTDVDGEWQVLTRTGEGLQRLTHTLQTSAGEHSVLTIHTSKQSGGKQASGKAIQTVIKNDELESVLRRLTSN
notes: packaging NTPase P4 of bacteriophage ɸ12 (gene 4) with Y288A; made from plasmid pPG27, plasmid pDK29; also called ɸ12 Y288A; source: E. coli BL21(DE3) or B834(DE3), purified (Heparin, Q-sepharose, Superdex 200)
As for B1, the “stoichiometry N” value in series [4] worked out at 6.

B2: ɸ12 P4 TTS202-204LKK (enzyme, bacteriophage ɸ12)
chain: MIHLYDAKSFAKLRAAQYAAFHTDAPGSWFDHTSGVLESVEDGTPVLAIGVESGDAIVFDKNAQRIVAYKEKSVKAEDGSVSVVQVENGFMKQGHRGWLVDLTGELVGCSPVVAEFGGHRYASGMVIVTGKGNSGKTPLVHALGEALGGKDKYATVRFGEPLSGYNTDFNVFVDDIARAMLQHRVIVIDSLKNVIGAAGGNLKKGGISRGAFDLLSDIGAMAASRGCVVIASLNPTSNDDKIVELVKEASRSNSTSLVISTDVDGEWQVLTRTGEGLQRLTHTLQTSYGEHSVLTIHTSKQSGGKQASGKAIQTVIKNDELESVLRRLTSN
notes: packaging NTPase P4 of bacteriophage ɸ12 (gene 4) with LKK instead of TTS (residues 202–204); cloned in the pT7-7 vector at NdeI-EcoRI sites; also called ɸ12 TTS202-204LKK; source: E. coli BL21(DE3) or B834(DE3), purified (Heparin, Q-sepharose, Superdex 200)
For the molecule B2, in series [4], the “stoichiometry N” value amounted to 6.

B3: ɸ12 P4-Q278A (enzyme)
chain: MIHLYDAKSFAKLRAAQYAAFHTDAPGSWFDHTSGVLESVEDGTPVLAIGVESGDAIVFDKNAQRIVAYKEKSVKAEDGSVSVVQVENGFMKQGHRGWLVDLTGELVGCSPVVAEFGGHRYASGMVIVTGKGNSGKTPLVHALGEALGGKDKYATVRFGEPLSGYNTDFNVFVDDIARAMLQHRVIVIDSLKNVIGAAGGNTTSGGISRGAFDLLSDIGAMAASRGCVVIASLNPTSNDDKIVELVKEASRSNSTSLVISTDVDGEWQVLTRTGEGLARLTHTLQTSYGEHSVLTIHTSKQSGGKQASGKAIQTVIKNDELESVLRRLTSN
notes: packaging NTPase P4 of bacteriophage ɸ12 (gene 4) with Q278A; made from plasmid pPG27, plasmid pDK30; Crystallised with 5 mM AMPcPP; also called ɸ12 Q278A; Q278A mutant; source: E. coli BL21(DE3) or B834(DE3), purified (Heparin, Q-sepharose, Superdex 200)
With B3, the “stoichiometry N” value in series [4] was found to be 6.

B4: ɸ12 P4-S292A (enzyme)
chain: MIHLYDAKSFAKLRAAQYAAFHTDAPGSWFDHTSGVLESVEDGTPVLAIGVESGDAIVFDKNAQRIVAYKEKSVKAEDGSVSVVQVENGFMKQGHRGWLVDLTGELVGCSPVVAEFGGHRYASGMVIVTGKGNSGKTPLVHALGEALGGKDKYATVRFGEPLSGYNTDFNVFVDDIARAMLQHRVIVIDSLKNVIGAAGGNTTSGGISRGAFDLLSDIGAMAASRGCVVIASLNPTSNDDKIVELVKEASRSNSTSLVISTDVDGEWQVLTRTGEGLQRLTHTLQTSYGEHAVLTIHTSKQSGGKQASGKAIQTVIKNDELESVLRRLTSN
notes: packaging NTPase P4 of bacteriophage ɸ12 (gene 4) with S292A; made from plasmid pPG27, plasmid pDK31; Crystallised with 5 mM AMPcPP; also called ɸ12 S292A; S292A mutant; source: E. coli BL21(DE3) or B834(DE3), purified (Heparin, Q-sepharose, Superdex 200)
For the molecule B4, the “stoichiometry N” value in series [4] amounted to 6.

B5: wild-type ɸ12 P4 (packaging NTPase P4 of bacteriophage ɸ12) (enzyme)
chain: MIHLYDAKSFAKLRAAQYAAFHTDAPGSWFDHTSGVLESVEDGTPVLAIGVESGDAIVFDKNAQRIVAYKEKSVKAEDGSVSVVQVENGFMKQGHRGWLVDLTGELVGCSPVVAEFGGHRYASGMVIVTGKGNSGKTPLVHALGEALGGKDKYATVRFGEPLSGYNTDFNVFVDDIARAMLQHRVIVIDSLKNVIGAAGGNTTSGGISRGAFDLLSDIGAMAASRGCVVIASLNPTSNDDKIVELVKEASRSNSTSLVISTDVDGEWQVLTRTGEGLQRLTHTLQTSYGEHSVLTIHTSKQSGGKQASGKAIQTVIKNDELESVLRRLTSN
notes: packaging NTPase P4 of bacteriophage ɸ12 (gene 4), wild type; plasmid pPG27; Crystallised here with 5 mM UTP; also called P4 ɸ12; source: E. coli BL21(DE3) or B834(DE3), purified (Heparin, Q-sepharose, Superdex 200)
Turning to B5, the “stoichiometry N” value in series [5] came out at 6.

B6: ɸ6 P4Δ310 (C-terminally truncated packaging NTPase P4 of bacteriophage ɸ6, missing residues 310–331) (domain or fragment, UniProt P11125 1-309, looked up)
chain: MPIVVTQAHIDRVGIAADLLDASPVSLQVLGRPTAINTVVIKTYIAAVMELASKQGGSLAGVDIRPSVLLKDTAIFTKPKAKSADVESDVDVLDTGIYSVPGLARKPVTHRWPSEGIYSGVTALMGATGSGKSITLNEKLRPDVLIRWGEVAEAYDELDTAVHISTLDEMLIVCIGLGALGFNVAVDSVRPLLFRLKGAASAGGIVAVFYSLLTDISNLFTQYDCSVVMVVNPMVDAEKIEYVFGQVMASTVGAILCADGNVSRTMFRTNKGRIFNGAAPLAADTHMPSMDRPTSMKALDHTSIASVAP
notes: packaging NTPase P4 of bacteriophage ɸ6, C-terminally truncated, missing residues 310–331; expressed from plasmid pJTJ7.3/7; Crystallised with ADP, Mg2+ and Ca2+; source: E. coli BL21(DE3) or B834(DE3), purified (Heparin, Q-sepharose, Superdex 200)
On to B6, for which the “stoichiometry N” value in series [6] was determined as 6.

B7: ɸ12 P4 ΔTTS202-204 (enzyme, bacteriophage ɸ12)
chain: MIHLYDAKSFAKLRAAQYAAFHTDAPGSWFDHTSGVLESVEDGTPVLAIGVESGDAIVFDKNAQRIVAYKEKSVKAEDGSVSVVQVENGFMKQGHRGWLVDLTGELVGCSPVVAEFGGHRYASGMVIVTGKGNSGKTPLVHALGEALGGKDKYATVRFGEPLSGYNTDFNVFVDDIARAMLQHRVIVIDSLKNVIGAAGGNGGISRGAFDLLSDIGAMAASRGCVVIASLNPTSNDDKIVELVKEASRSNSTSLVISTDVDGEWQVLTRTGEGLQRLTHTLQTSYGEHSVLTIHTSKQSGGKQASGKAIQTVIKNDELESVLRRLTSN
notes: packaging NTPase P4 of bacteriophage ɸ12 (gene 4) with the L1 loop central residues T202-T203-S204 deleted; made from plasmid pPG27, plasmid pDK249; also called ɸ12 ΔTTS202-204; source: E. coli BL21(DE3) or B834(DE3), purified (Heparin, Q-sepharose, Superdex 200)
As for B7, the “stoichiometry N” value in series [4] stood at 6.
